Test results: ChEMBL document CHEMBL3600307, “Synthesis, kinetic mechanism and docking studies of vanillin derivatives as inhibitors of mushroom tyrosinase” (Bioorg Med Chem, 2015)
Values belong to the molecule of their own block, whether it stands above or below them. Calls of active or inactive are those of the source. The rule behind the calls is not given here.

Experiments:
Tyrosinase [1] = target: T1, Tyrosinase (Agaricus bisporus, UniProt O42713)
T1 sequence (O42713 whole entry): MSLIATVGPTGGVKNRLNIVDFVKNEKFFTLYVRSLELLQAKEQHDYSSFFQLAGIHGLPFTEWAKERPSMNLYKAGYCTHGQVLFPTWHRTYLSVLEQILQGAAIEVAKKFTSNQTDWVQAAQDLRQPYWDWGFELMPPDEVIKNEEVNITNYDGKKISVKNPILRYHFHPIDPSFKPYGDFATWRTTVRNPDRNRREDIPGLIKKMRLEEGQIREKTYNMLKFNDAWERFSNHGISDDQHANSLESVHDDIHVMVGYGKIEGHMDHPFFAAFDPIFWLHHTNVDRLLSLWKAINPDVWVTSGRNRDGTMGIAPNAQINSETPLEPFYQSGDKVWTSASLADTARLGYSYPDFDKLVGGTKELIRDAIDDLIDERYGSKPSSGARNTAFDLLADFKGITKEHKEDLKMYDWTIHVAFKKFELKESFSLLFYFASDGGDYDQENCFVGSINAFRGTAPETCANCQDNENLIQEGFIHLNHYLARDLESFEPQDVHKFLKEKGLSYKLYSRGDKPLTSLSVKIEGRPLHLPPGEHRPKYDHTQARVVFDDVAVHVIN

Tyrosinase [2] = target: T1, Tyrosinase; remark: listed apart in the source
Tyrosinase [3] = target: T1, Tyrosinase; remark: listed apart in the source
[4] = target: T2, Tyrosinase (Agaricus bisporus) (UniProt O42713); test: Reversible inhibition of mushroom tyrosinase using L-DOPA as substrate at 10.6 to 342 uM
T2 sequence (whole entry): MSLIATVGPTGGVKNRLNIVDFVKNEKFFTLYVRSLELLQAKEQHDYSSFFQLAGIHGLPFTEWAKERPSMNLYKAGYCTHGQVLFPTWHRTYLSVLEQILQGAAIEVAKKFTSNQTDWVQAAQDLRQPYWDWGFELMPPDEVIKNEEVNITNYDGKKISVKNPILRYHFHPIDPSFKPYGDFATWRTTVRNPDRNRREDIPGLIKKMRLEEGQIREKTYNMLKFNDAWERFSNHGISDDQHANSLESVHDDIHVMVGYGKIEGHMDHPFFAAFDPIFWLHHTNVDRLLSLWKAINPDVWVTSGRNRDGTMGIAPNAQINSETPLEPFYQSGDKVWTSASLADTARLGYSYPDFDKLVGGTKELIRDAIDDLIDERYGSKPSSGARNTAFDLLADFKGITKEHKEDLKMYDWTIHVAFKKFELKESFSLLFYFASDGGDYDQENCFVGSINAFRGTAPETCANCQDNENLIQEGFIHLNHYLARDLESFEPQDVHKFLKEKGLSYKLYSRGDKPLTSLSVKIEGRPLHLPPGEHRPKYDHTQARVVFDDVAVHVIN

L929 = test: Cytotoxicity against mouse L929 cells assessed as decrease in cell viability after 24 hrs by MTT assay; type: cell-based; conditions: l929, 24 h
HaCaT = test: Cytotoxicity against human HaCaT cells assessed as decrease in cell viability after 24 hrs by MTT assay; type: cell-based
[5] = target: T2, Tyrosinase (Agaricus bisporus); conditions: 8.75 to 140 uM
[6] = compound: COc1cc(C=O)ccc1OC(=O)CN1CCN(C)CC1; test: Non competitive inhibition of mushroom tyrosinase using L-DOPA as substrate assessed as enzyme Vmax at 21.37 uM preincubated for 10 mins followed by substrate addition measured after 20 mins by Lineweaver-Burk plot analysis (reference value: […] x 10^-4 to 2.66 x 10^-4 deltaA/s); conditions: Agaricus bisporus
[7] = substrate: COc1cc(C=O)ccc1OC(=O)COC(=O)/C=C/c1ccc(Cl)cc1; conditions: Agaricus bisporus; 16.6 uM
[8] = compound: COc1cc(C=O)ccc1OC(=O)CN1CCN(C)CC1; test: Non competitive inhibition of mushroom tyrosinase using L-DOPA as substrate assessed as enzyme Vmax at 85.5 uM preincubated for 10 mins followed by substrate addition measured after 20 mins by Lineweaver-Burk plot analysis (reference value: […] x 10^-4 to 2.66 x 10^-4 deltaA/s); conditions: Agaricus bisporus
[9] = compound: COc1cc(C=O)ccc1OC(=O)CN1CCN(C)CC1; test: Non competitive inhibition of mushroom tyrosinase using L-DOPA as substrate assessed as enzyme Km at 85.5 uM preincubated for 10 mins followed by substrate addition measured after 20 mins by Lineweaver-Burk plot analysis (reference value: […] to […] mM); conditions: Agaricus bisporus
[10] = substrate: COc1cc(C=O)ccc1OC(=O)COC(=O)c1ccc(O)cc1O; conditions: Agaricus bisporus; 72.2 uM
[11] = substrate: COc1cc(C=O)ccc1OC(=O)COC(=O)/C=C/c1ccc(Cl)cc1; conditions: Agaricus bisporus; 8.3 uM
[12] = substrate: COc1cc(C=O)ccc1OC(=O)COC(=O)c1ccc(O)cc1O; conditions: Agaricus bisporus; 144.5 uM
[13] = substrate: COc1cc(C=O)ccc1OC(=O)COC(=O)c1ccc(O)cc1O; conditions: Agaricus bisporus; 144.5 uM; remark: listed apart in the source
[14] = substrate: COc1cc(C=O)ccc1OC(=O)COC(=O)c1ccc(O)cc1O; conditions: Agaricus bisporus; 289 uM
[15] = substrate: COc1cc(C=O)ccc1OC(=O)COC(=O)/C=C/c1ccc(Cl)cc1; conditions: Agaricus bisporus; 8.3 uM; remark: listed apart in the source
[16] = compound: COc1cc(C=O)ccc1OC(=O)CN1CCN(C)CC1; test: Non competitive inhibition of mushroom tyrosinase using L-DOPA as substrate assessed as enzyme Km at 21.37 uM preincubated for 10 mins followed by substrate addition measured after 20 mins by Lineweaver-Burk plot analysis (reference value: […] to […] mM); conditions: Agaricus bisporus
[17] = compound: COc1cc(C=O)ccc1OC(=O)CN1CCN(C)CC1; test: Non competitive inhibition of mushroom tyrosinase using L-DOPA as substrate assessed as enzyme Vmax at 10.68 uM preincubated for 10 mins followed by substrate addition measured after 20 mins by Lineweaver-Burk plot analysis (reference value: […] x 10^-4 to 2.66 x 10^-4 deltaA/s); conditions: Agaricus bisporus
[18] = substrate: COc1cc(C=O)ccc1OC(=O)COC(=O)/C=C/c1ccc(O)cc1; conditions: Agaricus bisporus; 17.5 uM
[19] = substrate: COc1cc(C=O)ccc1OC(=O)COC(=O)/C=C/c1ccc(Cl)cc1; conditions: Agaricus bisporus; 16.6 uM; remark: listed apart in the source
[20] = substrate: COc1cc(C=O)ccc1OC(=O)COC(=O)/C=C/c1ccc(O)cc1; conditions: Agaricus bisporus; 8.75 uM
[21] = compound: COc1cc(C=O)ccc1OC(=O)CN1CCN(C)CC1; test: Non competitive inhibition of mushroom tyrosinase using L-DOPA as substrate assessed as enzyme Km at 10.68 uM preincubated for 10 mins followed by substrate addition measured after 20 mins by Lineweaver-Burk plot analysis (reference value: […] to […] mM); conditions: Agaricus bisporus
[22] = compound: COc1cc(C=O)ccc1OC(=O)CN1CCN(C)CC1; test: Non competitive inhibition of mushroom tyrosinase using L-DOPA as substrate assessed as enzyme Km at 42.75 uM preincubated for 10 mins followed by substrate addition measured after 20 mins by Lineweaver-Burk plot analysis (reference value: […] to […] mM); conditions: Agaricus bisporus
[23] = substrate: COc1cc(C=O)ccc1OC(=O)COC(=O)/C=C/c1ccc(Cl)cc1; conditions: Agaricus bisporus; 33.3 uM
[24] = compound: COc1cc(C=O)ccc1OC(=O)CN1CCN(C)CC1; test: Non competitive inhibition of mushroom tyrosinase using L-DOPA as substrate assessed as enzyme Km at 342 uM preincubated for 10 mins followed by substrate addition measured after 20 mins by Lineweaver-Burk plot analysis (reference value: […] to […] mM); conditions: Agaricus bisporus
[25] = substrate: COc1cc(C=O)ccc1OC(=O)COC(=O)/C=C/c1ccc(O)cc1; conditions: Agaricus bisporus; 17.5 uM; remark: listed apart in the source
[26] = compound: COc1cc(C=O)ccc1OC(=O)CN1CCN(C)CC1; test: Non competitive inhibition of mushroom tyrosinase using L-DOPA as substrate assessed as enzyme Vmax at 342 uM preincubated for 10 mins followed by substrate addition measured after 20 mins by Lineweaver-Burk plot analysis (reference value: […] x 10^-4 to 2.66 x 10^-4 deltaA/s); conditions: Agaricus bisporus
[27] = substrate: COc1cc(C=O)ccc1OC(=O)COC(=O)/C=C/c1ccc(O)cc1; conditions: Agaricus bisporus; 8.75 uM; remark: listed apart in the source
[28] = substrate: COc1cc(C=O)ccc1OC(=O)COC(=O)c1ccc(O)cc1O; conditions: Agaricus bisporus; 289 uM; remark: listed apart in the source
[29] = substrate: COc1cc(C=O)ccc1OC(=O)COC(=O)c1ccc(O)cc1O; conditions: Agaricus bisporus; 72.2 uM; remark: listed apart in the source
[30] = compound: COc1cc(C=O)ccc1OC(=O)CN1CCN(C)CC1; test: Non competitive inhibition of mushroom tyrosinase using L-DOPA as substrate assessed as enzyme Vmax at 42.75 uM preincubated for 10 mins followed by substrate addition measured after 20 mins by Lineweaver-Burk plot analysis (reference value: […] x 10^-4 to 2.66 x 10^-4 deltaA/s); conditions: Agaricus bisporus

IC50 (Tyrosinase [1]): 78.9 µM
Molecule: COc1cc(C=O)ccc1OC(=O)CCl

IC50 (Tyrosinase [1]): 42.6 µM | Ki (Tyrosinase [2]): 65 µM | Ki (Tyrosinase [3]): 205 µM
Molecule: COc1cc(C=O)ccc1OC(=O)COC(=O)c1ccc(O)cc1O

IC50 (Tyrosinase [1]): 201 µM
Molecule: COc1cc(C=O)ccc1OC(=O)COC(=O)c1ccc(O)cc1

IC50 (Tyrosinase [1]): 30.9 µM | Ki (Tyrosinase [2]): 41 µM | Ki (Tyrosinase [3]): 100 µM
Molecule: COc1cc(C=O)ccc1OC(=O)COC(=O)/C=C/c1ccc(Cl)cc1

IC50 (Tyrosinase [1]): 59.8 µM
Molecule: COc1cc(C=O)ccc1OC(=O)COC(=O)c1cc(O)cc(O)c1

IC50 (Tyrosinase [1]): 157 µM
Molecule: COc1cc(C=O)ccc1OC(=O)COC(=O)c1ccc(O)c(O)c1

IC50 (Tyrosinase [1]): 21.6 µM | inhibition [4]: Active | Ki (Tyrosinase [2]): 60 µM
Molecule: COc1cc(C=O)ccc1OC(=O)CN1CCN(C)CC1

IC50 (Tyrosinase [1]): 101 µM
Molecule: COc1cc(C=O)ccc1OC(=O)CN1CCN(c2ccccc2)CC1

IC50 (Tyrosinase [1]): 16.1 µM | Ki (Tyrosinase [2]): 13 µM | Ki (Tyrosinase [3]): 53 µM | inhibition [5]: Active
Molecule: COc1cc(C=O)ccc1OC(=O)COC(=O)/C=C/c1ccc(O)cc1
Activity (L929): Dose-dependent effect | Activity (HaCaT): Dose-dependent effect

B1: Tyrosinase (Agaricus bisporus), O42713 (protein)
chain: MSLIATVGPTGGVKNRLNIVDFVKNEKFFTLYVRSLELLQAKEQHDYSSFFQLAGIHGLPFTEWAKERPSMNLYKAGYCTHGQVLFPTWHRTYLSVLEQILQGAAIEVAKKFTSNQTDWVQAAQDLRQPYWDWGFELMPPDEVIKNEEVNITNYDGKKISVKNPILRYHFHPIDPSFKPYGDFATWRTTVRNPDRNRREDIPGLIKKMRLEEGQIREKTYNMLKFNDAWERFSNHGISDDQHANSLESVHDDIHVMVGYGKIEGHMDHPFFAAFDPIFWLHHTNVDRLLSLWKAINPDVWVTSGRNRDGTMGIAPNAQINSETPLEPFYQSGDKVWTSASLADTARLGYSYPDFDKLVGGTKELIRDAIDDLIDERYGSKPSSGARNTAFDLLADFKGITKEHKEDLKMYDWTIHVAFKKFELKESFSLLFYFASDGGDYDQENCFVGSINAFRGTAPETCANCQDNENLIQEGFIHLNHYLARDLESFEPQDVHKFLKEKGLSYKLYSRGDKPLTSLSVKIEGRPLHLPPGEHRPKYDHTQARVVFDDVAVHVIN
Vmax (10'-4deltaA/s) [6]: 1.42 | Vmax (10'-4deltaA/s) [7]: 1.96 | Vmax (10'-5deltaA/s) [8]: 7.14 | Km [9]: 400 µM | Vmax (10'-4deltaA/s) [10]: 2 | Km [11]: 900 µM | Km [12]: 1000 µM | Vmax (10'-4deltaA/s) [13]: 1.53 | Km [14]: 1250 µM | Vmax (10'-4deltaA/s) [15]: 2.22 | Km [16]: 400 µM | Vmax (10'-4deltaA/s) [17]: 1.66 | Vmax (10'-4deltaA/s) [18]: 2 | Km [19]: 1000 µM | Km [20]: 1330 µM | Km [21]: 400 µM | Km [22]: 400 µM | Vmax (10'-4deltaA/s) [23]: 1.85 | Km [24]: 400 µM | Km [25]: 1530 µM | Vmax (10'-5deltaA/s) [26]: 2.85 | Vmax (10'-4deltaA/s) [27]: 2.22 | Vmax (10'-4deltaA/s) [28]: 1.05 | Km [29]: 830 µM | Vmax (10'-4deltaA/s) [30]: 1.17
